Results from US10562947B2, “Compositions and methods for preventing or treating diseases, conditions or processes characterized by aberrant fibroblast proliferation and extracellular matrix deposition” (MOERAE MATRIX, INC., priority 2011, dated 2020).

Columns and labels:
Assay in all cases: Kinase Profiling Assay
Type in all cases: biochemical
Details in all cases: 100 μM peptide
TSSK1(h) = target: T1, TSSK1(h) (Homo sapiens, UniProt Q9BXA7)
T1 sequence (Q9BXA7 1-367): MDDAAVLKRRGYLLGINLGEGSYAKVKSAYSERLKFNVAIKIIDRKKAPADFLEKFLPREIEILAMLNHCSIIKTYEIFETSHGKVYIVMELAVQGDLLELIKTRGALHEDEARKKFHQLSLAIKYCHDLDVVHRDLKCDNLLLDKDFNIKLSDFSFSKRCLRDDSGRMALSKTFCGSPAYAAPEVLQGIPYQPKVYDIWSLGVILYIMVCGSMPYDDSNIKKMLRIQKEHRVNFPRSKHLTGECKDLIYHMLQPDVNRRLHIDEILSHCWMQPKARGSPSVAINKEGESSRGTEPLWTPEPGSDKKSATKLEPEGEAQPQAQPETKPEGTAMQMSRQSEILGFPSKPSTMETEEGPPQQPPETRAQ
Protocol: (§1) Every kinase activity measurement was conducted in duplicate.
(§2) In addition to determining the IC50 of the compound, the specificity of MK2 inhibitory peptides was assessed by examining activities of all 266 human kinases available for testing in the Millipore kinase profiling service (Table 1).

DDR2(h) = target: T2, DDR2(h) (Homo sapiens, UniProt Q16832)
T2 sequence (Q16832 22-855): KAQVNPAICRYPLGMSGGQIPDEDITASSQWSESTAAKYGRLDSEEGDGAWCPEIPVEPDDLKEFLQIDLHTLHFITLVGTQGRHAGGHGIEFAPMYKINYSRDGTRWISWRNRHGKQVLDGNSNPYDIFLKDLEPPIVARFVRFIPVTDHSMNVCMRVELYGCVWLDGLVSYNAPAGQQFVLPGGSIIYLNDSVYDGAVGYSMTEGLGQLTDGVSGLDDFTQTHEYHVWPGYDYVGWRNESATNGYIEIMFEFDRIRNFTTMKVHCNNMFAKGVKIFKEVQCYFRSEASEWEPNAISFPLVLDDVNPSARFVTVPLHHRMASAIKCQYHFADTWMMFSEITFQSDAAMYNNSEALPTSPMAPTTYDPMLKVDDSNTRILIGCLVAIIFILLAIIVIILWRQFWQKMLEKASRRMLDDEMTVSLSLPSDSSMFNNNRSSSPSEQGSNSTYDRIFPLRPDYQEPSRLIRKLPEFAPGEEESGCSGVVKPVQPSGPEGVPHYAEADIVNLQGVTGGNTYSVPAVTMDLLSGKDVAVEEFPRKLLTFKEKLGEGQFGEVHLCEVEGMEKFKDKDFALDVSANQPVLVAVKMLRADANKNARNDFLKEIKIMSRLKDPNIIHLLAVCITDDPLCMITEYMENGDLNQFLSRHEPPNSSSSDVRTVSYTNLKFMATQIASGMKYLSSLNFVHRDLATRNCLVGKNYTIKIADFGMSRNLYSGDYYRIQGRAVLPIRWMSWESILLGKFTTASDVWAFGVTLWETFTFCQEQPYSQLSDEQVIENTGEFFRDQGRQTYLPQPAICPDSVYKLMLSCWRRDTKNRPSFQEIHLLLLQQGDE
Protocol: as §1, §2

mTOR/FKBP12(h) = mTOR/FKBP12(h) (Homo sapiens, UniProt P42345)
mTOR/FKBP12(h), sequence (P42345 1362-2549 limits assumed): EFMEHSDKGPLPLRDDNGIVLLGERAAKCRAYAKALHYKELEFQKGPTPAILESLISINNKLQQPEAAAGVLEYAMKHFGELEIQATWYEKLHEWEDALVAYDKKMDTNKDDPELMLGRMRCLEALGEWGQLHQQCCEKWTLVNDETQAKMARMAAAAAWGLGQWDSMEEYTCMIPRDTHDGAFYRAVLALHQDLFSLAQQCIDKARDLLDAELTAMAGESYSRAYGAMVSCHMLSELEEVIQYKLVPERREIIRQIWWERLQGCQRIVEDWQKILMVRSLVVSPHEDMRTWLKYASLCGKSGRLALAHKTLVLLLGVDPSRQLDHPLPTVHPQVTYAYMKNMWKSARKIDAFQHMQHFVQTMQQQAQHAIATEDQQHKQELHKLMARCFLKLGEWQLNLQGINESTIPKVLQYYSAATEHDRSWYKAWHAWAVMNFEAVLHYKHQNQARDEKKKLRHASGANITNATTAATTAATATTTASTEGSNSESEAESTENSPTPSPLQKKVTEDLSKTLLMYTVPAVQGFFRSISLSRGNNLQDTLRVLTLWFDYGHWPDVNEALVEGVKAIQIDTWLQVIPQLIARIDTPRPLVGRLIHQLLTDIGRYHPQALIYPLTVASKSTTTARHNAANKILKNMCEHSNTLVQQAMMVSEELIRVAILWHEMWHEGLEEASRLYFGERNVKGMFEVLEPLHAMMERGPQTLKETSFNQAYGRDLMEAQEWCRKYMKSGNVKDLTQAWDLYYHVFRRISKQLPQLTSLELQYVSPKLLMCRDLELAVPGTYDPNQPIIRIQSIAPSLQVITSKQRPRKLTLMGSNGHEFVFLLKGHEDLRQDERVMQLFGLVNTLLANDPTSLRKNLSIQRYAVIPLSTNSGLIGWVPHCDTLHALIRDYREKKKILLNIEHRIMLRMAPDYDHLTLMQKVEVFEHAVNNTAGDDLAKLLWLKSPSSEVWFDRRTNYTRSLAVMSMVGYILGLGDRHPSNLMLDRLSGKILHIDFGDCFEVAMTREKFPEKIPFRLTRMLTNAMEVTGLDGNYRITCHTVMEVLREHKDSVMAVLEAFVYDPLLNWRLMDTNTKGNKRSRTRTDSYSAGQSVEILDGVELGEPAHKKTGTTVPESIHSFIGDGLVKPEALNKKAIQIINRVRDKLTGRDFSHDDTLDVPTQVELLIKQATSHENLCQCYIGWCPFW
Protocol: as §1, §2

Fms(Y969C)(h) = Fms(Y969C)(h) (Homo sapiens, UniProt P07333, Y969C)
Protocol: as §1, §2

MKK6(h) = target: T3, MKK6(h) (Homo sapiens, UniProt P52564)
T3 sequence (P52564 1-334): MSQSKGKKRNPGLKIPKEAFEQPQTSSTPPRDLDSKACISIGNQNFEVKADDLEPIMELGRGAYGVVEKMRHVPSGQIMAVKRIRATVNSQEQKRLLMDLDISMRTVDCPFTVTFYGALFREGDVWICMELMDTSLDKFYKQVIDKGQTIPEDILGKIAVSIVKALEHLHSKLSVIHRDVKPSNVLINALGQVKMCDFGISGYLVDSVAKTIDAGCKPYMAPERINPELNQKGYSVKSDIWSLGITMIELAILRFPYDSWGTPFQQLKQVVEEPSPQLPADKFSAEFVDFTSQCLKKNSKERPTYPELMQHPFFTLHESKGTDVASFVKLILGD
Protocol: as §1, §2

BTK(h) = BTK(h) (Homo sapiens, UniProt Q06187)
BTK(h), sequence (Q06187 whole entry): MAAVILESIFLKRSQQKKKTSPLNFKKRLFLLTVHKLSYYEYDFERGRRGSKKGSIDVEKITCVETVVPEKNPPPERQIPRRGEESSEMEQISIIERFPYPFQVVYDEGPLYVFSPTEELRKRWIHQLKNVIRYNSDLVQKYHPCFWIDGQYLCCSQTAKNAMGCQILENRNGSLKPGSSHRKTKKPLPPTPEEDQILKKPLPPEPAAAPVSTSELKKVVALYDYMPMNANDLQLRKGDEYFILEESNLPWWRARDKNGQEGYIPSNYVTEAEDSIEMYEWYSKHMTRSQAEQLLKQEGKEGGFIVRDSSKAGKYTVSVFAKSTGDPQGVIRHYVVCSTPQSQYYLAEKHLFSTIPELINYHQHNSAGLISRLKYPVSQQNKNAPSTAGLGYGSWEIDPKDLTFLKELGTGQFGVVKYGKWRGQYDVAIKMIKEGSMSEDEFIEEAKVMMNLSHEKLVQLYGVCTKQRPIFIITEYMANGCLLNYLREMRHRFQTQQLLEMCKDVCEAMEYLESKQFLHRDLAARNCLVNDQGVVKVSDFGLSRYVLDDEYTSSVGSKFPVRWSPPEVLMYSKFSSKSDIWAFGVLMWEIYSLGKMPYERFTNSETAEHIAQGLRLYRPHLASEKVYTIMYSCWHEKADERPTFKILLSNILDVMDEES
Protocol: as §1, §2

CaMKIIγ(h) = CaMKIIγ(h) (Homo sapiens, UniProt Q13555)
CaMKIIγ(h), sequence (Q13555 whole entry): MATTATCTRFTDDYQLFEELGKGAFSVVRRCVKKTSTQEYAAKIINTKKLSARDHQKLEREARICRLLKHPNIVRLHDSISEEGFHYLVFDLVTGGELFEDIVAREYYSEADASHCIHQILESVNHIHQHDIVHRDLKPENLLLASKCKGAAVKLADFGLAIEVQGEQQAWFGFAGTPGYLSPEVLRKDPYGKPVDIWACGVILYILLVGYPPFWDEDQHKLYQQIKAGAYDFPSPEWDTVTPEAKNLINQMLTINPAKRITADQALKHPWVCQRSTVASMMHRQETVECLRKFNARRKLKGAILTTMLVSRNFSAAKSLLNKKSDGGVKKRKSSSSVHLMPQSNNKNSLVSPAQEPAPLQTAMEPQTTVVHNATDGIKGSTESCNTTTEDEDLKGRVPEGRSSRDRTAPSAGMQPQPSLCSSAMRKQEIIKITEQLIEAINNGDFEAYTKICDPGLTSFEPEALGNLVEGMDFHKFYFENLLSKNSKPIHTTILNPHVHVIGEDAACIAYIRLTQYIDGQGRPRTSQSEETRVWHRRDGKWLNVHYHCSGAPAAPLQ
Protocol: as §1, §2

Yes(h) = Yes(h) (Homo sapiens, UniProt P07947)
Yes(h), sequence (P07947 whole entry): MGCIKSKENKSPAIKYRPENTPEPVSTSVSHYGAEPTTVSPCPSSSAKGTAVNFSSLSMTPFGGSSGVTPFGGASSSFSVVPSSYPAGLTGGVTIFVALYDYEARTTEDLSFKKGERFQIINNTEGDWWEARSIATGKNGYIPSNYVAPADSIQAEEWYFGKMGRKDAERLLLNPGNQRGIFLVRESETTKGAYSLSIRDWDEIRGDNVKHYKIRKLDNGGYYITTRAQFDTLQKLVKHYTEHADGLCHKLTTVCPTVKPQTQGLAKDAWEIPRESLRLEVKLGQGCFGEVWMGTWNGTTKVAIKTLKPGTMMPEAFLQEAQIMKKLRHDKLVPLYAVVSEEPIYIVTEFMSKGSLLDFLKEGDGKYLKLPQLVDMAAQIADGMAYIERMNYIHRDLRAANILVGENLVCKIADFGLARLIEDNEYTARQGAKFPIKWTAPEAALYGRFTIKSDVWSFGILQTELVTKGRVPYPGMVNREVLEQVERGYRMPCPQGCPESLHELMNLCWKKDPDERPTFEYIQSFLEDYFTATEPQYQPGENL
Protocol: as §1, §2

CaMKIIβ(h) = CaMKIIβ(h) (Homo sapiens, UniProt Q13554)
CaMKIIβ(h), sequence (Q13554 whole entry): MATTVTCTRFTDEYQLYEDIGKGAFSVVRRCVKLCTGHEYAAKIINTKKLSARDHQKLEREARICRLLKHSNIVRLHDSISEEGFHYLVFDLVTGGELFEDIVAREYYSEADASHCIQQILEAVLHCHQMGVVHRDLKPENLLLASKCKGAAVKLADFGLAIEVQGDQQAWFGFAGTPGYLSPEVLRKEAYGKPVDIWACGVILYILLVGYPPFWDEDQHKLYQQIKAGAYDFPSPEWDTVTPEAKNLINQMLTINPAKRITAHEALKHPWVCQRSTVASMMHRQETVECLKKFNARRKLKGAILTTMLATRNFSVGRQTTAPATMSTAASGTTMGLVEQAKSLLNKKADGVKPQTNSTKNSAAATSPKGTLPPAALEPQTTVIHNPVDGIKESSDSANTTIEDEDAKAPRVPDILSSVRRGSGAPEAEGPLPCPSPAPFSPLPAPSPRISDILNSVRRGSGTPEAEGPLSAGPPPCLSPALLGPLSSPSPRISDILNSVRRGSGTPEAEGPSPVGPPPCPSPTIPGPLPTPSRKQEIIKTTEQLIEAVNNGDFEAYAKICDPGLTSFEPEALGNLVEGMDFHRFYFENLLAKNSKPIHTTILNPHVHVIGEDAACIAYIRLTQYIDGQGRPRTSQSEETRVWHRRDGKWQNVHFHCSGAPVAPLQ
Protocol: as §1, §2

JAK2(h) = target: T4, JAK2(h) (Homo sapiens, UniProt O60674)
T4 construct: purchased Millipore
T4 sequence (O60674 whole entry): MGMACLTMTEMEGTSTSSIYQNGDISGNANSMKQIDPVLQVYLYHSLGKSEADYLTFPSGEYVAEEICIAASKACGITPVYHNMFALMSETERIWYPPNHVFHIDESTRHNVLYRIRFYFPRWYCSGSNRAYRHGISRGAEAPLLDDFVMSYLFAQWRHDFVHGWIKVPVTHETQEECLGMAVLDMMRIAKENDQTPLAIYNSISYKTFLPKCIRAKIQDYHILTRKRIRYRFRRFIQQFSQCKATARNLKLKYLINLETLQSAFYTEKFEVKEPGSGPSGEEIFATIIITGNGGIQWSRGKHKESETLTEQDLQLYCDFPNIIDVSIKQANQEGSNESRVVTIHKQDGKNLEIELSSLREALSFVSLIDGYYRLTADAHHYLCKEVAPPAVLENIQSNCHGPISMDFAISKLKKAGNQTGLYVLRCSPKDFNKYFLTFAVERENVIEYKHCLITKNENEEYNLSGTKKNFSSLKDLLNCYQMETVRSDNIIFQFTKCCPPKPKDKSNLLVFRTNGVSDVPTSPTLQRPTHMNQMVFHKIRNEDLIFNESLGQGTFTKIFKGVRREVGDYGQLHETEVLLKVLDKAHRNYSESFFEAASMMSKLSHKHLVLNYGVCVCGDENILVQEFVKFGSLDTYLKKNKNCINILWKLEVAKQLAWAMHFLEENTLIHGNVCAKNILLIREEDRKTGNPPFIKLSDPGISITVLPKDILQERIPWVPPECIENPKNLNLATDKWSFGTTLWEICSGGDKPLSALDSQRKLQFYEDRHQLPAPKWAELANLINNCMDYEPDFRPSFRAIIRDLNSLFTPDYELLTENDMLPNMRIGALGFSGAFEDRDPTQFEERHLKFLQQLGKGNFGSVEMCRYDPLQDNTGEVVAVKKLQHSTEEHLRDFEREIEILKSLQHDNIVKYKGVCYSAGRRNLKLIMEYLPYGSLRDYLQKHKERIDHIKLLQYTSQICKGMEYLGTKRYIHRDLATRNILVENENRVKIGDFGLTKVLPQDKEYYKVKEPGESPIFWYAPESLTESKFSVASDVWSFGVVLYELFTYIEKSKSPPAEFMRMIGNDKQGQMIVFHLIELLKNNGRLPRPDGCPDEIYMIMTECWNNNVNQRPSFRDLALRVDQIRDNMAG
Protocol: as §1, §2

KAFAKLAARLYRKALARQLGVAA [MMI-0400]
TSSK1(h) % activity (TSSK1(h)): 79% | DDR2(h) % activity (DDR2(h)): 95% | mTOR/FKBP12(h) % activity (mTOR/FKBP12(h)): 125% | Fms(Y969C)(h) % activity (Fms(Y969C)(h)): 91% | MKK6(h) % activity (MKK6(h)): 44% | BTK(h) % activity (BTK(h)): 94% | CaMKIIγ(h) % activity (CaMKIIγ(h)): 3% | Yes(h) % activity (Yes(h)): 14% | CaMKIIβ(h) % activity (CaMKIIβ(h)): 11%

YARAAARQARAKALNRQLGVA (Mammalian) [MMI-0200]
TSSK1(h) % activity (TSSK1(h)): 98% | mTOR/FKBP12(h) % activity (mTOR/FKBP12(h)): 118% | Fms(Y969C)(h) % activity (Fms(Y969C)(h)): 88% | JAK2(h) % activity (JAK2(h)): 131% | MKK6(h) % activity (MKK6(h)): 98% | BTK(h) % activity (BTK(h)): 100% | CaMKIIγ(h) % activity (CaMKIIγ(h)): 94% | Yes(h) % activity (Yes(h)): 93% | CaMKIIβ(h) % activity (CaMKIIβ(h)): 53%

FAKLAARLYRKALARQLGVAA [MMI-0300]
TSSK1(h) % activity (TSSK1(h)): 79% | DDR2(h) % activity (DDR2(h)): 94% | mTOR/FKBP12(h) % activity (mTOR/FKBP12(h)): 145% | Fms(Y969C)(h) % activity (Fms(Y969C)(h)): 72% | JAK2(h) % activity (JAK2(h)): 133% | MKK6(h) % activity (MKK6(h)): 48% | CaMKIIγ(h) % activity (CaMKIIγ(h)): 5% | Yes(h) % activity (Yes(h)): 67% | CaMKIIβ(h) % activity (CaMKIIβ(h)): 2%

HRRIKAWLKKIKALARQLGVAA (Mammalian) [MMI-0500]
TSSK1(h) % activity (TSSK1(h)): 46% | DDR2(h) % activity (DDR2(h)): 79% | mTOR/FKBP12(h) % activity (mTOR/FKBP12(h)): 140% | JAK2(h) % activity (JAK2(h)): 49% | MKK6(h) % activity (MKK6(h)): 18% | BTK(h) % activity (BTK(h)): 18% | CaMKIIγ(h) % activity (CaMKIIγ(h)): 3% | CaMKIIβ(h) % activity (CaMKIIβ(h)): 3%
